Measurements published in PMC10723718 (PLOS Genetics, 2023).

B1: GST-PhoRC (domain or fragment)
chain: TAAAIGAGQLDRRVPQWHPRTEVGRLSLALNGMLAQIQRAVASAESSAEKARDSEDRMRQFITDASHELRTPLTTIRGFAELYRQGAARDVGMLLSRIESEASRMGLLVDDLLLLARLDAHRPLELCRVDLLALASDAAHDARAMDPKRRITLEVLDGPGTPEVLGDESRLRQVLRNLVANAIQHTPESADVTVRVGTEGDDAILEVADDGPGMSQEDALRVFERFYRADSSRARASGGTGLGLSIVDSLVAAHGGAVTVTTALGEGCCFRVSLPRVSDVDQLSLTPVVPGPP
notes: PhoR, sensor kinase, M. tuberculosis, cytoplasmic domain PhoRC, residues 193-485 (C-terminal 293 residues); also called GST-tagged PhoRC
B2: His6-tagged PrrBC (cytoplasmic region of PrrB comprising C-terminal residues 200 to 446) (domain or fragment)
chain: ASEAIEIAEAMRGMLQRIWNEQNRTKEALASARDFAAVSSHELRTPLTAMRTNLEVLSTLDLPDDQRKEVLNDVIRTQSRIEATLSALERLAQGELSTSDDHVPVDITDLLDRAAHDAARIYPDLDVSLVPSPTCIIVGLPAGLRLAVDNAIANAVKHGGATLVQLSAVSSRAGVEIAIDDNGSGVPEGERQVVFERFSRGSTASHSGSGLGLALVAQQAQLHGGTASLENSPLGGARLVLRLPGPS
notes: PrrB, sensor kinase, M. tuberculosis, cytoplasmic domain residues 200-446 (247 amino acids); also called His6-PrrBC; His-PrrBC; not shown: His6, N-terminal, kept

Assays:
His6-PhoP = target: T1, His6-PhoP (M. tuberculosis, UniProt P71814 1-247); assay: pull-down; conditions: both partners purified
T1 construct: PhoP, response regulator, M. tuberculosis, full length (247 amino acids); also called His-PhoP; not shown: His6, N-terminal, kept

GST-PhoP = target: T2, GST-PhoP (M. tuberculosis, UniProt P71814 1-247); assay: pull-down; conditions: both partners purified
T2 construct: PhoP, response regulator, M. tuberculosis; also called GST-tagged PhoP

Binder | binding result (His6-PhoP) | binding result (GST-PhoP)
B1 | binds | –
B2 | – | binds
